# ± gives the uncertainty stated by the source.
# Assay: self-splicing fitness, log relative to wild type (ln ratio); higher = more splicing; Tetrahymena group I intron in knt gene, E. coli kanamycin selection, DiMSum; sequences stand for … in CUCUCU…GGAGGGAAAAGUUAUCAGGCAUGCACCUGGUAGCUAGUCUUUAAACCAAUAGAUUGCAUCGGUUUAAAAGGCAAGACCGUCAAAUUGCGGGAAAGGGGUCAACAGCCGUUCAGUACCAAGUCUCAGGGGAAACUUUGAGAUGGCCUUGCAAAGGGUAUGGUAAUAAGCUGACGGACAUGGUCCUAACCACGCAGCCAAGUCCUAAGUCAACAGAUCUUCUGUUGAUAUGGAUGCAGUUCACAGACUAAAUGUCGGUCGGGGAAGAUGUAUUCUUCUCAUAAGAUAUAGUCGGACCUCUCCUUAAUGGGAGCUAGCGGAUGAAGUGAUGCAACACUGGAGCCGCUGGGAACUAAUUUGUAUGCGAAAGUAUAUUGAUUAGUUUUGGAGUACUCGUGGUCG
# Method in brief: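 DiMSum derived fitness as the error-weighted combination of fold changes across replicates, kanamycin versus no kanamycin, normalised to wild type. E. coli BL21(DE3) held the library, which randomised all eight P1ex-region intron nucleotides within the knt kanamycin-resistance gene on pET-22b(+). Six replicate transformations grew overnight at 37°C or 30°C on LB agar with or without 25 μg/mL kanamycin, also containing 100 μg/mL carbenicillin, 50 μM IPTG and 0.2% rhamnose, and pooled colonies were amplicon-sequenced on an Illumina HiSeq 2500.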
sequence,measurement,setting,value
UGCGAGCAAUAUUACGUCGG,self-splicing fitness (ln),37 °C,-1.91 ± 0.26
GCUGAGCAAUAUUACGAGUA,self-splicing fitness (ln),30 °C,-2.25 ± 0.31
same,self-splicing fitness (ln),37 °C,-1.72 ± 0.35
AACUAGCAAUAUUACGUGCG,self-splicing fitness (ln),30 °C,-0.832 ± 0.067
same,self-splicing fitness (ln),37 °C,-0.0538 ± 0.078
UACCAGCAAUAUUACGCCUG,self-splicing fitness (ln),30 °C,-1.3 ± 0.14
same,self-splicing fitness (ln),37 °C,-1.21 ± 0.19
GAUAAGCAAUAUUACGUGUC,self-splicing fitness (ln),30 °C,-2.29 ± 0.21
same,self-splicing fitness (ln),37 °C,-2.5 ± 0.31
UUUAAGCAAUAUUACGAAAU,self-splicing fitness (ln),30 °C,-2.95 ± 0.24
same,self-splicing fitness (ln),37 °C,-1.04 ± 0.19
CUAUAGCAAUAUUACGUAGG,self-splicing fitness (ln),30 °C,-1.44 ± 0.085
same,self-splicing fitness (ln),37 °C,-0.685 ± 0.13
UUUUAGCAAUAUUACGACAU,self-splicing fitness (ln),30 °C,-2.164 ± 0.021
same,self-splicing fitness (ln),37 °C,-1.09 ± 0.036
AGUUAGCAAUAUUACGGACC,self-splicing fitness (ln),30 °C,-0.357 ± 0.11
same,self-splicing fitness (ln),37 °C,-0.279 ± 0.16
CUCCAGCAAUAUUACGGGUU,self-splicing fitness (ln),30 °C,-3.83 ± 0.2
same,self-splicing fitness (ln),37 °C,-2.91 ± 0.2
CGCUAGCAAUAUUACGCAAC,self-splicing fitness (ln),37 °C,-1.61 ± 0.49
UGUCAGCAAUAUUACGUUAG,self-splicing fitness (ln),30 °C,-1.07 ± 0.067
same,self-splicing fitness (ln),37 °C,-0.704 ± 0.065
GGUGAGCAAUAUUACGAUAG,self-splicing fitness (ln),30 °C,-0.576 ± 0.23
same,self-splicing fitness (ln),37 °C,-2.81 ± 0.34
AUUUAGCAAUAUUACGCUCU,self-splicing fitness (ln),30 °C,0.51 ± 0.27
same,self-splicing fitness (ln),37 °C,0.235 ± 0.44
UUAUAGCAAUAUUACGUCAU,self-splicing fitness (ln),37 °C,-2.98 ± 0.37
UGGCAGCAAUAUUACGCCAU,self-splicing fitness (ln),30 °C,-3.71 ± 0.25
ACGAAGCAAUAUUACGUGAC,self-splicing fitness (ln),30 °C,-3.87 ± 0.26
same,self-splicing fitness (ln),37 °C,-1.12 ± 0.17
CGUAAGCAAUAUUACGUGUG,self-splicing fitness (ln),30 °C,-1.29 ± 0.063
same,self-splicing fitness (ln),37 °C,-0.745 ± 0.078
AAGAAGCAAUAUUACGACGA,self-splicing fitness (ln),30 °C,-0.362 ± 0.093
same,self-splicing fitness (ln),37 °C,-0.274 ± 0.099
CGCAAGCAAUAUUACGUUAC,self-splicing fitness (ln),30 °C,-4 ± 0.22
same,self-splicing fitness (ln),37 °C,-3.23 ± 0.27
AAUCAGCAAUAUUACGUACU,self-splicing fitness (ln),30 °C,0.336 ± 0.084
same,self-splicing fitness (ln),37 °C,0.692 ± 0.11
CACCAGCAAUAUUACGGGGC,self-splicing fitness (ln),30 °C,-4.45 ± 0.22
same,self-splicing fitness (ln),37 °C,-1.29 ± 0.14
CUUGAGCAAUAUUACGGGUG,self-splicing fitness (ln),30 °C,-1.24 ± 0.072
same,self-splicing fitness (ln),37 °C,-0.485 ± 0.078
GUUGAGCAAUAUUACGCGAG,self-splicing fitness (ln),30 °C,-1.35 ± 0.18
same,self-splicing fitness (ln),37 °C,-0.457 ± 0.17
CGUUAGCAAUAUUACGUUUA,self-splicing fitness (ln),30 °C,-2.86 ± 0.23
same,self-splicing fitness (ln),37 °C,-2.63 ± 0.18
AGCCAGCAAUAUUACGUACA,self-splicing fitness (ln),30 °C,-3.16 ± 0.22
same,self-splicing fitness (ln),37 °C,-2.5 ± 0.27
GAAUAGCAAUAUUACGGAUA,self-splicing fitness (ln),30 °C,-2.36 ± 0.26
same,self-splicing fitness (ln),37 °C,-1.46 ± 0.21
AUUCAGCAAUAUUACGAGAC,self-splicing fitness (ln),37 °C,-0.937 ± 0.18
UGCGAGCAAUAUUACGGCUA,self-splicing fitness (ln),30 °C,0.388 ± 0.12
same,self-splicing fitness (ln),37 °C,0.499 ± 0.15
UAGGAGCAAUAUUACGAUGC,self-splicing fitness (ln),30 °C,-1.78 ± 0.23
same,self-splicing fitness (ln),37 °C,-1.01 ± 0.17
CGAAAGCAAUAUUACGAUCA,self-splicing fitness (ln),30 °C,-0.312 ± 0.1
same,self-splicing fitness (ln),37 °C,0.699 ± 0.13
CACUAGCAAUAUUACGGGUG,self-splicing fitness (ln),30 °C,-4.03 ± 0.36
same,self-splicing fitness (ln),37 °C,-2.57 ± 0.21
CCCGAGCAAUAUUACGAUUC,self-splicing fitness (ln),30 °C,-4.01 ± 0.3
same,self-splicing fitness (ln),37 °C,-2.13 ± 0.18
AUUCAGCAAUAUUACGAGCA,self-splicing fitness (ln),30 °C,-0.457 ± 0.16
same,self-splicing fitness (ln),37 °C,-0.783 ± 0.2
GGCGAGCAAUAUUACGUAAG,self-splicing fitness (ln),30 °C,-3.88 ± 0.38
same,self-splicing fitness (ln),37 °C,-1.39 ± 0.27
GGCAAGCAAUAUUACGCUAA,self-splicing fitness (ln),30 °C,-0.671 ± 0.089
same,self-splicing fitness (ln),37 °C,0.1 ± 0.12
UUAAAGCAAUAUUACGUCGC,self-splicing fitness (ln),30 °C,-3.09 ± 0.21
same,self-splicing fitness (ln),37 °C,-2.18 ± 0.23
GCAUAGCAAUAUUACGGAGU,self-splicing fitness (ln),30 °C,-3.52 ± 0.14
same,self-splicing fitness (ln),37 °C,-1.86 ± 0.11
UAGAAGCAAUAUUACGAAGG,self-splicing fitness (ln),30 °C,-2.9 ± 0.17
same,self-splicing fitness (ln),37 °C,-1.82 ± 0.39
UCCCAGCAAUAUUACGUUAU,self-splicing fitness (ln),30 °C,-4.35 ± 0.18
same,self-splicing fitness (ln),37 °C,-2.47 ± 0.17
GAAAAGCAAUAUUACGGUUA,self-splicing fitness (ln),30 °C,-0.324 ± 0.062
same,self-splicing fitness (ln),37 °C,-0.0141 ± 0.067
UCUCAGCAAUAUUACGUCCU,self-splicing fitness (ln),30 °C,-2.36 ± 0.14
same,self-splicing fitness (ln),37 °C,-2.57 ± 0.24
UAUCAGCAAUAUUACGAACA,self-splicing fitness (ln),30 °C,-0.0668 ± 0.089
same,self-splicing fitness (ln),37 °C,-0.206 ± 0.096

# — the supplement of paper PMC7877785
